{"source": "patent US5691312A", "about": "“Pharmaceutical for subcutaneous or intramuscular administration containing polypeptides” (Behringwerke Aktiengesellschaft, priority 1989, dated 1997)", "key": {"[1]": {"experiment": "Hemorrhages at the administration site, urokinase", "type": "in vivo, rabbit", "settings": "for Number of animals with hemorrhages: 0.05 M tris, 5 mg/kg", "procedure": "(§1) Each ml of the thawed solutions from Example 1 was administered sc and im (femoral biceps) in animals (rats or rabbits). In the case of im administration, the total volume of 1 ml was divided between four types of injection.\n(§2) Number of animals with hemorrhages"}, "[2]": {"experiment": "Bioavailability and/or tolerability of polypeptides administered sc or im with added amino acid (general statements)", "type": "in vivo, rats or rabbits", "settings": "amino acid additives, sc or im administration", "procedure": "as §1\n(§3) After 0, 15, 30, 60, 120, 180, 240 and 340 minutes (r-t-PA mutant) or 0, 30, 60, 120, 180, 240, 300, 360, 420 and 450 minutes (r-t-PA, hirudin, urokinase AT III, F XIII, von Willebrand, EPO, PP4), blood samples (+ citrate) were taken. The blood samples were then immediately centrifuged and the resulting citrate plasma was frozen at -20° C. until the determination. The plasma concentration of the test substance was measured as follows:\n(§4) The area under the curve (AUC) was then calculated. This value is an expression of the bioavailability and makes possible comparison between the different presentation forms."}, "[3]": {"experiment": "Bioavailability of t-PA in the rat (plasma concentration by ELISA, AUC)", "type": "in vivo", "settings": "n=2, 3.3/8.2 mg/kg", "procedure": "Each ml of the thawed solutions from Example 1 was administered sc and im (femoral biceps) in animals (rats or rabbits). In the case of im administration, the total volume of 1 ml was divided between four types of injection. […]\nas §3\nr-t-PA ELISA (Biopool, Sweden)\nas §4\nI. Bioavailability of t-PA in the rat"}, "[4]": {"experiment": "Death of animals after sc/im administration", "type": "in vivo", "settings": "buffer 5 (0.05 M tris, 0.1 M NaCl pH 7.5, 0.1% Tween 80, 50 mg/ml hydroxylamine), rat, 3.3/8.2 mg/kg", "procedure": "as §1"}, "[5]": {"settings": "additive for sc or im administration of proteins; WO 86/06962 and EP-A-0,292,908; cited from earlier work"}, "[6]": {"experiment": "Hemorrhages at the administration site, hirudin", "type": "in vivo, rat", "procedure": "as §1, §2"}, "[7]": {"settings": "presentation form according to the invention versus customary presentation forms"}}, "data": [{"molecule": "Urokinase", "values": [{"measurement": "Number of animals with hemorrhages", "setting": "[1]; 0.1 M NaCl pH 7.5, im", "result": "2/3"}, {"measurement": "Number of animals with hemorrhages", "setting": "[1]; 0.1 M NaCl pH 7.5, sc", "result": "2/3"}, {"measurement": "hemorrhages at the administration site on sc and im administration", "setting": "[1]; [7]", "result": "distinctly less"}, {"measurement": "influence on the bioavailability and/or improvement in the tolerability", "setting": "[2]", "result": "favorable influence"}]}, {"molecule": "t-PA: r-t-PA (Actilyse) purchased from Boehringer Ingelheim; tissue plasminogen activator", "values": [{"measurement": "AUC + Variation (%)", "setting": "[3]; buffer 1 (0.05 M tris, 0.1 M NaCl), im", "result": "358 ± 10", "unit": "%"}, {"measurement": "AUC + Variation (%)", "setting": "[3]; buffer 1 (0.05 M tris, 0.1 M NaCl), sc", "result": "36 ± 13", "unit": "%"}, {"measurement": "AUC + Variation (%)", "setting": "[3]; buffer 2 (idem buffer 1, pH 4.5), im", "result": "386 ± 2", "unit": "%"}, {"measurement": "AUC + Variation (%)", "setting": "[3]; buffer 2 (idem buffer 1, pH 4.5), sc", "result": "53 ± 14", "unit": "%"}, {"measurement": "AUC + Variation (%)", "setting": "[3]; buffer 3 (0.2 M arginine, 0.2 M lysine pH 7.5), im", "result": "756 ± 2", "unit": "%"}, {"measurement": "AUC + Variation (%)", "setting": "[3]; buffer 3 (0.2 M arginine, 0.2 M lysine pH 7.5), sc", "result": "423 ± 3", "unit": "%"}, {"measurement": "AUC + Variation (%)", "setting": "[3]; buffer 4 (0.2 M arginine, 0.2 M lysine pH 4.5), im", "result": "669 ± 17", "unit": "%"}, {"measurement": "AUC + Variation (%)", "setting": "[3]; buffer 4 (0.2 M arginine, 0.2 M lysine pH 4.5), sc", "result": "382 ± 11", "unit": "%"}, {"measurement": "AUC + Variation (%)", "setting": "[3]; buffer 7 (0.05 M tris, 0.1 M NaCl pH 7.5, 0.1% Tween 80, 3% dimethyl sulfoxide), im", "result": "184 ± 18", "unit": "%"}, {"measurement": "AUC + Variation (%)", "setting": "[3]; buffer 7 (0.05 M tris, 0.1 M NaCl pH 7.5, 0.1% Tween 80, 3% dimethyl sulfoxide), sc", "result": "87 ± 12", "unit": "%"}, {"measurement": "AUC + Variation (%)", "setting": "[3]; buffer 8 (0.2 M arginine pH 7.5), im", "result": "600 ± 4", "unit": "%"}, {"measurement": "AUC + Variation (%)", "setting": "[3]; buffer 8 (0.2 M arginine pH 7.5), sc", "result": "320 ± 2", "unit": "%"}, {"measurement": "AUC + Variation (%)", "setting": "[3]; buffer 9 (0.2 M lysine pH 7.5), im", "result": "610 ± 10", "unit": "%"}, {"measurement": "AUC + Variation (%)", "setting": "[3]; buffer 9 (0.2 M lysine pH 7.5), sc", "result": "290 ± 11", "unit": "%"}, {"measurement": "influence on the bioavailability and/or improvement in the tolerability", "setting": "[2]", "result": "favorable influence"}, {"measurement": "animals died", "setting": "[4]; im", "result": "all animals died"}, {"measurement": "animals died", "setting": "[4]; sc", "result": "all animals died"}]}, {"molecule": "NO", "note": "[hydroxylamine]", "values": [{"measurement": "tolerability", "setting": "[5]", "result": "limited tolerability"}]}, {"molecule": "CN", "note": "[methylamine]", "values": [{"measurement": "tolerability", "setting": "[5]", "result": "limited tolerability"}]}, {"molecule": "F XIII: F XIII (Fibrogammin) obtained from Behringwerke", "values": [{"measurement": "influence on the bioavailability and/or improvement in the tolerability", "setting": "[2]", "result": "favorable influence"}]}, {"molecule": "antithrombin III", "values": [{"measurement": "influence on the bioavailability and/or improvement in the tolerability", "setting": "[2]", "result": "favorable influence"}]}, {"molecule": "EPO: r-erythropoietin (EPO); 1 mg of EPO corresponds to 80,000 U of EPO antigen", "values": [{"measurement": "influence on the bioavailability and/or improvement in the tolerability", "setting": "[2]", "result": "favorable influence"}]}, {"molecule": "Hirudin", "values": [{"measurement": "Number of animals with hemorrhages", "setting": "[6]; 0.05 M tris, 0.1 M NaCl, im, 10 mg/kg", "result": "3/3"}, {"measurement": "animal died as a result of the hemorrhages", "setting": "[6]; 0.05 M tris, 0.1 M NaCl, im, 10 mg/kg, of 3 animals", "result": 1, "unit": "animal"}, {"measurement": "Number of animals with hemorrhages", "setting": "[6]; 0.05 M tris, 0.1 M NaCl, sc, 10 mg/kg", "result": "2/3"}, {"measurement": "Number of animals with hemorrhages", "setting": "[6]; 0.2 M arginine, 0.2 M lysine pH 7.5, im, 10 mg/kg", "result": "0/3"}, {"measurement": "Number of animals with hemorrhages", "setting": "[6]; 0.2 M arginine, 0.2 M lysine pH 7.5, sc, 10 mg/kg", "result": "0/3"}, {"measurement": "hemorrhages at the administration site on sc and im administration", "setting": "[6]; [7]", "result": "distinctly less"}, {"measurement": "influence on the bioavailability and/or improvement in the tolerability", "setting": "[2]", "result": "favorable influence"}]}, {"molecule": "PP4: PP4 (placenta protein 4) prepared by the process of EP 0,123,307", "values": [{"measurement": "influence on the bioavailability and/or improvement in the tolerability", "setting": "[2]", "result": "favorable influence"}]}, {"molecule": "von Willebrand factor: prepared by the process of DE 3,904,354 (1 mg of vW corresponds to 100 U of vW antigen)", "values": [{"measurement": "influence on the bioavailability and/or improvement in the tolerability", "setting": "[2]", "result": "favorable influence"}]}]}
